Results as given in patent US20090291899A1 (published 2009).
Where no end group is shown, it is not given here.

Biological target: T1, recombinant human soluble TNF receptor inhibitor/Fc chimera (rHusTNFRI) (human, UniProt P19438 30-211)
T1 construct: Bought from Prospec-Tany TechnoGene; Only the soluble part stood in the assay; also called TNF-R1; immobilised rHusTNFRI; not shown: Fc part of human IgG1; 6x histidine tag on the Fc part
T1 sequence: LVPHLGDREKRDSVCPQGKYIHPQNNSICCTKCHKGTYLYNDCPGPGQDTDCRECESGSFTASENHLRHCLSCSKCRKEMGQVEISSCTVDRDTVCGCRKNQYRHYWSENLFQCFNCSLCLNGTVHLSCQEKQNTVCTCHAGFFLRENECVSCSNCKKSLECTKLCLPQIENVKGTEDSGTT
Assay: solid-phase competition ELISA: unlabelled TNF70-80 against 10 µM biotinylated TNF70-80 on immobilised rHusTNFRI

B1: TNF70-80 (Pro-Ser-Thr-His-Val-Leu-Ile-Thr-His-Thr-Ile-OH) (peptide)
peptide: PSTHVLITHTI-OH
notes: 4; also called Peptide A; TNF mimetic peptide
With B1 the IC50 was about 21 µM and the Kd was 90 µM.
